For 44 variants, abundance fitness results are on record in the Human Domainome abundance scans (Beltran et al. 2025).

To fix the notation:
B1: CD2-associated protein, residues 271 to 331; numbered along this chain, Q9Y5K6 (parent)
chain: KEYCRTLFAYEGTNEDELTFKEGEIIHLISKETGEAGWWRGELNGKEGVFPDNFAVQINEL

± gives the uncertainty stated by the source.

The variants in the series derive from B1. The series is described as follows: abundance fitness (aPCA) (normalised: wild type 0, dead -1); higher = more abundant; growth selection in yeast, the domain comes from the species named. To be noted: Homo sapiens.
For KEYCRTLFAYEGTNEDELTFKEGEIIHLISKETGEAGWWRGELNGKEGEFPDNFAVQINEL [V49E], the abundance fitness is -0.674 ± 0.17.
The figure for KEYCRTLFWYEGTNEDELTFKEGEIIHLISKETGEAGWWRGELNGKEGVFPDNFAVQINEL [A9W] is -0.448 ± 0.07.
The figure for KEYCRTLFAYEGTNEDELTFKEGEIIHLISKVTGEAGWWRGELNGKEGVFPDNFAVQINEL [E32V] is -0.152 ± 0.049.
For the variant KEYCRTLFAYEGTNEDELTFKEGEIIHLISKCTGEAGWWRGELNGKEGVFPDNFAVQINEL [E32C], the abundance fitness is -0.164 ± 0.048.
The figure for KEYCRTLFAYEGTNEDELTFKEGEIIHKISKETGEAGWWRGELNGKEGVFPDNFAVQINEL [L28K] is -0.503 ± 0.084.
The figure for KEYCRTLFAYEGTNEDELTFKEGEIIHDISKETGEAGWWRGELNGKEGVFPDNFAVQINEL [L28D] is -0.82 ± 0.26.
The figure for KEYCRTLFAYEGTNEDELTFKEGEIIHPISKETGEAGWWRGELNGKEGVFPDNFAVQINEL [L28P] is -0.614 ± 0.17; for KEYCRTLFAYEGTNEDELTFKEGEIIHLISKETGEAGWWRGELNGKEGVFKDNFAVQINEL [P51K] it is 0.152 ± 0.13; for KEYCRTLFAYEGTNEDELTFKEGEIIHLISKETGEAGWWRGELTGKEGVFPDNFAVQINEL [N44T] it is -0.518 ± 0.064.
Consider KEYCRTLFAYEGTNEDELTFKEGEIIHLISKETGEAGWWRGEINGKEGVFPDNFAVQINEL [L43I], for which the abundance fitness is -0.004 ± 0.14.
The figure for KEYCRTLFAYEGGNEDELTFKEGEIIHLISKETGEAGWWRGELNGKEGVFPDNFAVQINEL [T13G] is -0.018 ± 0.064.
The figure for KEQCRTLFAYEGTNEDELTFKEGEIIHLISKETGEAGWWRGELNGKEGVFPDNFAVQINEL [Y3Q] is -0.775 ± 0.19; for KEYCRTLFAYEGTNEDELTFKEGEIIHLISKETGEAGWWRGELNGKEGVDPDNFAVQINEL [F50D] it is -0.626 ± 0.13.
As for KEYCRTLFAYEGTNEDELTFKEGEIIHLISKETGEAGWWRGELNGKEGVFPDNFANQINEL [V56N], the abundance fitness is -0.339 ± 0.11.
The figure for KEYCRTLFAYEGTNEDELTFKEGEIIHLISKETGEAGWWRGELNGKEGVFPDNAAVQINEL [F54A] is 0.162 ± 0.062; for KEYCRTLFAYEGTNEDELTFKEGEIIHLISKETGEAGWWRGELNGKECVFPDNFAVQINEL [G48C] it is -1.01 ± 0.15; for KEYCRTLFAYEGTNEDELTFKEGEIIHLISKETGEAGWWRGELNGKERVFPDNFAVQINEL [G48R] it is -0.856 ± 0.059.
As for KEYCRTLFAYEGTNEDELTFKEGEIIHLISKETGEAGWWRGELNGKEIVFPDNFAVQINEL [G48I], the figure is -0.725 ± 0.2; as for KEYCRTLFAYEGTNEDELTFKEGEIIHLISKETGEAQWWRGELNGKEGVFPDNFAVQINEL [G37Q], -0.428 ± 0.2.
As for KEYCRTLFAYEGTNEDELTFKEGEIIHLISKETGEAWWWRGELNGKEGVFPDNFAVQINEL [G37W], the figure is -1.08 ± 0.43; as for KEYCRTLFAYEGTNEDELTFKEGEIIHLISGETGEAGWWRGELNGKEGVFPDNFAVQINEL [K31G], -0.522 ± 0.11; as for KEYCRTLFAYEGTNEDELTFKEGEIIHLISSETGEAGWWRGELNGKEGVFPDNFAVQINEL [K31S], -0.571 ± 0.068.
As to KEYCRTLFAFEGTNEDELTFKEGEIIHLISKETGEAGWWRGELNGKEGVFPDNFAVQINEL [Y10F], the abundance fitness is -0.182 ± 0.1.
The figure for KEYCRTLFAYEGTHEDELTFKEGEIIHLISKETGEAGWWRGELNGKEGVFPDNFAVQINEL [N14H] is -0.107 ± 0.074.
The figure for TEYCRTLFAYEGTNEDELTFKEGEIIHLISKETGEAGWWRGELNGKEGVFPDNFAVQINEL [K1T] is -0.394 ± 0.079.
As for KEYCRVLFAYEGTNEDELTFKEGEIIHLISKETGEAGWWRGELNGKEGVFPDNFAVQINEL [T6V], the figure is -0.844 ± 0.19.
Regarding KEYCRALFAYEGTNEDELTFKEGEIIHLISKETGEAGWWRGELNGKEGVFPDNFAVQINEL [T6A], the abundance fitness is -0.014 ± 0.091.
With KEYCRTLFAYEGTNEDELTFKEGVIIHLISKETGEAGWWRGELNGKEGVFPDNFAVQINEL [E24V], the abundance fitness is -0.318 ± 0.046.
KEYCRTLFAYEGTNEDELTFKEGEIIHLISKETGNAGWWRGELNGKEGVFPDNFAVQINEL [E35N]: the abundance fitness was 0.002 ± 0.11.
As for KEYCRTLFAYEGTNEDELTFKETEIIHLISKETGEAGWWRGELNGKEGVFPDNFAVQINEL [G23T], the figure is -0.424 ± 0.14; as for KEYCRTLFAYEHTNEDELTFKEGEIIHLISKETGEAGWWRGELNGKEGVFPDNFAVQINEL [G12H], -0.837 ± 0.16; as for KEYCRTLFAYEPTNEDELTFKEGEIIHLISKETGEAGWWRGELNGKEGVFPDNFAVQINEL [G12P], -0.381 ± 0.087.
As for KEYCRTLFAYEGTNEDELTFKEGEIIHLISKETGEAGWWRGELNAKEGVFPDNFAVQINEL [G45A], the figure is -0.437 ± 0.071; as for KEYCRTLFAYEGTNEDELTFKEGEIIHLISKETGEAGWWRGELNGKEGVFPDNFAVQINGL [E60G], 0.013 ± 0.14; as for KEYCRTLFAYEGTNEDELTFKEGEIIHLISKETGEAGWWRGELNGKEGVFPDNFAVQINRL [E60R], -0.178 ± 0.13.
The figure for KEYCRTLFAYEGTNEDELTFKEGEIIHLISKETGEAGWWRGELNGKEGVFPDKFAVQINEL [N53K] is 0.133 ± 0.18; for KEYCRTLFAYEGTNEDELTFKEGEISHLISKETGEAGWWRGELNGKEGVFPDNFAVQINEL [I26S] it is -0.76 ± 0.078.
With KEYCRTLFAYEGTNEDELTFKEGEIIHLISKETGEQGWWRGELNGKEGVFPDNFAVQINEL [A36Q], the abundance fitness amounted to 0.036 ± 0.12.
The figure for KAYCRTLFAYEGTNEDELTFKEGEIIHLISKETGEAGWWRGELNGKEGVFPDNFAVQINEL [E2A] is -0.022 ± 0.068; for KEYCRTLFAYEGTNEDELTFKEGEIIHLISKETGEAGWWRGELNGKEGVFPDNFAVQINET [L61T] it is 0.105 ± 0.12.
As for KEYCRTLFAYEGTNEDELTFKEGEIIHLISKETGEAGWWRIELNGKEGVFPDNFAVQINEL [G41I], the figure is -1.08 ± 0.36; as for KEYCRTLFAYEGTNEDELTFKEGEIIHLISKETGEAGWWRDELNGKEGVFPDNFAVQINEL [G41D], -0.616 ± 0.18.
As for KEYCRTLFAYEGTNEDELTFKEGEIIHLISKETGEAGSWRGELNGKEGVFPDNFAVQINEL [W38S], the figure is -0.675 ± 0.075; as for KEYCRTLFAYEGTNEDELTFKEGEIIHLISKETGEAGWVRGELNGKEGVFPDNFAVQINEL [W39V], -0.519 ± 0.087.
